Reference: US20080213836

Columns and labels:
[1] = tested on: recombinant fusion protein of Medaka trypsinogen
[2] = tested on: T1, Gly-Asp-Asp-Asp-Asp-Lys-β-naphthylamide
T1 sequence: GDDDDK

With Medaka EP-2 serine protease domain the “conversion of trypsinogen to active trypsin” value [1] was “The trypsinogen was converted to active trypsin by EP-1 faster than by EP-2” and the “enzyme activity for GD4K-βNA” value [2] was “Both enzymes showed maximal activities for GD4K-βNA at pH 8”.
